Measurements from the supplement of paper PMC9112550, “Optimization of the antimicrobial peptide Bac7 by deep mutational scanning” (BMC Biology, 2022).

Tested on: Escherichia coli TOP10
Experiment: shrunken log2 fold change of peptide-encoding DNA abundance (4.5 h post-induction vs induction); higher = less antimicrobial activity (less host growth inhibition)
Conditions: time post-induction: 4.5 h; library: site-saturation at positions 5, 18, 19, 20
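Further: peptides expressed intracellularly from a pBAD plasmid library in pooled LB shake-flask culture, induced with 0.3% L-arabinose, DNA abundance read by NGS, three biological replicates, DESeq2 with apeglm shrinkage.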

Sequence | shrunken log2 fold change
RRIRKRPPRLPRPRPRPIHLPRP | -0.0911
RRIRKRPPRLPRPRPRPIIRPRP | -0.59
RRIRKRPPRLPRPRPRPIKIPRP | -0.149
RRIRKRPPRLPRPRPRPIMRPRP | -0.00968
RRIRKRPPRLPRPRPRPIQEPRP | 0.000523
RRIRKRPPRLPRPRPRPIRDPRP | -0.016
RRIRKRPPRLPRPRPRPIRGPRP | 0.0181
RRIRKRPPRLPRPRPRPIRIPRP | -0.0265
RRIRKRPPRLPRPRPRPIRNPRP | -0.34
RRIRKRPPRLPRPRPRPISRPRP | -0.00748
RRIRKRPPRLPRPRPRPITLPRP | -0.0554
RRIRKRPPRLPRPRPRPIVQPRP | 0.000772
RRIRKRPPRLPRPRPRPIVSPRP | -0.0354
RRIRKRPPRLPRPRPRPIYYPRP | -0.37
RRIRKRPPRLPRPRPRPKAFPRP | 0.0156
RRIRKRPPRLPRPRPRPKAGPRP | 0.504
RRIRKRPPRLPRPRPRPKEGPRP | 0.0503
RRIRKRPPRLPRPRPRPKESPRP | -0.0162
RRIRKRPPRLPRPRPRPKFKPRP | 0.241
RRIRKRPPRLPRPRPRPKHDPRP | 0.133
RRIRKRPPRLPRPRPRPKHEPRP | 0.134
RRIRKRPPRLPRPRPRPKHNPRP | 0.0641
RRIRKRPPRLPRPRPRPKLFPRP | 0.379
RRIRKRPPRLPRPRPRPKLQPRP | 0.423
RRIRKRPPRLPRPRPRPKLSPRP | -0.0159

Sequence | shrunken log2 fold change
RRIRKRPPRLPRPRPRPKMAPRP | 0.169
RRIRKRPPRLPRPRPRPKMVPRP | -0.031
RRIRKRPPRLPRPRPRPKNVPRP | 0.0773
RRIRKRPPRLPRPRPRPKPCPRP | 0.0204
RRIRKRPPRLPRPRPRPKPIPRP | 0.742
RRIRKRPPRLPRPRPRPKQDPRP | 0.119
RRIRKRPPRLPRPRPRPKQNPRP | 0.706
RRIRKRPPRLPRPRPRPKQWPRP | 0.216
RRIRKRPPRLPRPRPRPKRYPRP | 0.032
RRIRKRPPRLPRPRPRPKTMPRP | 0.185
RRIRKRPPRLPRPRPRPKTYPRP | -0.156
RRIRKRPPRLPRPRPRPKVGPRP | 0.00386
RRIRKRPPRLPRPRPRPKWCPRP | 0.152
RRIRKRPPRLPRPRPRPKYGPRP | -0.206
RRIRKRPPRLPRPRPRPKYMPRP | -0.0337
RRIRKRPPRLPRPRPRPLAIPRP | 0.0828
RRIRKRPPRLPRPRPRPLASPRP | 0.0708
RRIRKRPPRLPRPRPRPLAYPRP | 0.259
RRIRKRPPRLPRPRPRPLCCPRP | 0.104
RRIRKRPPRLPRPRPRPLCMPRP | 0.081
RRIRKRPPRLPRPRPRPLCRPRP | 0.392
RRIRKRPPRLPRPRPRPLDEPRP | 0.0161
RRIRKRPPRLPRPRPRPLFSPRP | -0.0137
RRIRKRPPRLPRPRPRPLFTPRP | 0.331
RRIRKRPPRLPRPRPRPLGFPRP | 0.872

Sequence | shrunken log2 fold change
RRIRKRPPRLPRPRPRPLGIPRP | 4.29
RRIRKRPPRLPRPRPRPLIFPRP | -0.0683
RRIRKRPPRLPRPRPRPLIIPRP | -0.501
RRIRKRPPRLPRPRPRPLIYPRP | -0.213
RRIRKRPPRLPRPRPRPLLIPRP | -0.11
RRIRKRPPRLPRPRPRPLLMPRP | -0.109
RRIRKRPPRLPRPRPRPLMKPRP | 0.0125
RRIRKRPPRLPRPRPRPLPDPRP | -0.105
RRIRKRPPRLPRPRPRPLPMPRP | 0.562
RRIRKRPPRLPRPRPRPLQCPRP | 0.101
RRIRKRPPRLPRPRPRPLQPPRP | 0.349
RRIRKRPPRLPRPRPRPLRDPRP | 0.757
RRIRKRPPRLPRPRPRPLRTPRP | 0.727
RRIRKRPPRLPRPRPRPLSWPRP | 0.826
RRIRKRPPRLPRPRPRPLTPPRP | 0.658
RRIRKRPPRLPRPRPRPLTTPRP | 0.539
RRIRKRPPRLPRPRPRPLVAPRP | 0.805
RRIRKRPPRLPRPRPRPLVNPRP | -0.0445
RRIRKRPPRLPRPRPRPLVRPRP | 0.114
RRIRKRPPRLPRPRPRPLVSPRP | 0.0109
RRIRKRPPRLPRPRPRPLYGPRP | -0.289
RRIRKRPPRLPRPRPRPLYYPRP | -0.458
RRIRKRPPRLPRPRPRPMAIPRP | 0.116
RRIRKRPPRLPRPRPRPMCMPRP | -0.169
RRIRKRPPRLPRPRPRPMCTPRP | -0.0805

Sequence | shrunken log2 fold change
RRIRKRPPRLPRPRPRPMDKPRP | 0.166
RRIRKRPPRLPRPRPRPMDWPRP | 0.256
RRIRKRPPRLPRPRPRPMESPRP | 0.0143
RRIRKRPPRLPRPRPRPMFNPRP | -0.0523
RRIRKRPPRLPRPRPRPMGWPRP | 0.31
RRIRKRPPRLPRPRPRPMHCPRP | 3.88
RRIRKRPPRLPRPRPRPMISPRP | 0.18
RRIRKRPPRLPRPRPRPMITPRP | -0.278
RRIRKRPPRLPRPRPRPMKLPRP | 0.0347
RRIRKRPPRLPRPRPRPMLHPRP | 0.164
RRIRKRPPRLPRPRPRPMNGPRP | -0.0531
RRIRKRPPRLPRPRPRPMNHPRP | 0.395
RRIRKRPPRLPRPRPRPMNTPRP | -0.287
RRIRKRPPRLPRPRPRPMPHPRP | 0.274
RRIRKRPPRLPRPRPRPMPPPRP | 0.729
RRIRKRPPRLPRPRPRPMSFPRP | 0.106
RRIRKRPPRLPRPRPRPMVEPRP | 0.0956
RRIRKRPPRLPRPRPRPNAPPRP | 0.449
RRIRKRPPRLPRPRPRPNCMPRP | -0.0663
RRIRKRPPRLPRPRPRPNCPPRP | 0.0785
RRIRKRPPRLPRPRPRPNDFPRP | -0.0772
RRIRKRPPRLPRPRPRPNDMPRP | 0.194
RRIRKRPPRLPRPRPRPNDQPRP | -0.101
RRIRKRPPRLPRPRPRPNERPRP | -0.0286
RRIRKRPPRLPRPRPRPNESPRP | -0.0703

Sequence | shrunken log2 fold change
RRIRKRPPRLPRPRPRPNFCPRP | -0.0549
RRIRKRPPRLPRPRPRPNHTPRP | -0.213
RRIRKRPPRLPRPRPRPNIQPRP | -0.0271
RRIRKRPPRLPRPRPRPNKQPRP | -0.0316
RRIRKRPPRLPRPRPRPNNHPRP | -0.469
RRIRKRPPRLPRPRPRPNPRPRP | 0.228
RRIRKRPPRLPRPRPRPNQWPRP | 0.274
RRIRKRPPRLPRPRPRPNRAPRP | -0.0335
RRIRKRPPRLPRPRPRPNRGPRP | 0.0385
RRIRKRPPRLPRPRPRPNRSPRP | -0.0169
RRIRKRPPRLPRPRPRPNSFPRP | -0.234
RRIRKRPPRLPRPRPRPNSHPRP | -0.272
RRIRKRPPRLPRPRPRPNSKPRP | 0.0385
RRIRKRPPRLPRPRPRPNVCPRP | -0.144
RRIRKRPPRLPRPRPRPNVEPRP | 0.192
RRIRKRPPRLPRPRPRPNYSPRP | -0.0472
RRIRKRPPRLPRPRPRPNYVPRP | -0.087
RRIRKRPPRLPRPRPRPNYYPRP | -0.305
RRIRKRPPRLPRPRPRPPAFPRP | 0.309
RRIRKRPPRLPRPRPRPPCAPRP | 0.804
RRIRKRPPRLPRPRPRPPCCPRP | 0.39
RRIRKRPPRLPRPRPRPPDFPRP | 0.12
RRIRKRPPRLPRPRPRPPEHPRP | 0.197
RRIRKRPPRLPRPRPRPPEKPRP | 0.00179
RRIRKRPPRLPRPRPRPPENPRP | 1.15

Sequence | shrunken log2 fold change
RRIRKRPPRLPRPRPRPPERPRP | 2.02
RRIRKRPPRLPRPRPRPPHLPRP | 0.332
RRIRKRPPRLPRPRPRPPMAPRP | 0.41
RRIRKRPPRLPRPRPRPPNKPRP | 0.289
RRIRKRPPRLPRPRPRPPPDPRP | 0.906
RRIRKRPPRLPRPRPRPPPMPRP | 0.826
RRIRKRPPRLPRPRPRPPQFPRP | 0.127
RRIRKRPPRLPRPRPRPPRTPRP | 0.829
RRIRKRPPRLPRPRPRPPSDPRP | 0.75
RRIRKRPPRLPRPRPRPPSIPRP | 0.0697
RRIRKRPPRLPRPRPRPPVMPRP | 0.337
RRIRKRPPRLPRPRPRPPWGPRP | 0.501
RRIRKRPPRLPRPRPRPQCKPRP | 0.0757
RRIRKRPPRLPRPRPRPQCSPRP | 0.136
RRIRKRPPRLPRPRPRPQDTPRP | -0.0445
RRIRKRPPRLPRPRPRPQGEPRP | -0.000844
RRIRKRPPRLPRPRPRPQHAPRP | 0.232
RRIRKRPPRLPRPRPRPQKVPRP | -0.0143
RRIRKRPPRLPRPRPRPQLWPRP | 0.539
RRIRKRPPRLPRPRPRPQMAPRP | 0.481
RRIRKRPPRLPRPRPRPQMFPRP | -0.00577
RRIRKRPPRLPRPRPRPQNIPRP | -0.21
RRIRKRPPRLPRPRPRPQPIPRP | 0.424
RRIRKRPPRLPRPRPRPQPMPRP | 0.462
RRIRKRPPRLPRPRPRPQPVPRP | 0.095
